This passage reports self-cleavage results from the RNAGym collection of RNA variant scans (doi:10.7554/elife.80360).

The labels stand for the following.
B1: CPEB3 Ribozyme (parent)
chain: GGGGGCCACAGCAGAAGCGUUCACGUCGCGGCCCCUGUCAGAUUCUGGUGAAUCUGCGAAUUCUGCUGU

This series covers variants of B1. The experiment in a line: self-cleavage, relative activity (ratio to wild type); higher = more cleavage; co-transcriptional.
In the case of U36G U38A, the self-cleavage was 0.214.

In the case of G37A G41U, the self-cleavage was determined as 0.219.

For G37U U55A, the self-cleavage is 0.187.

As to U36C U64A, the self-cleavage stood at 0.713.

In the case of G37A A59U, the self-cleavage came to 0.215.

With U38C U64A, the self-cleavage was 0.772.

Consider U36G U62A, for which the self-cleavage was 0.131.

Consider U36G U62G, for which the self-cleavage was 0.238.

As for G37U G50A, the self-cleavage was 0.284.

With G37U G50C, the self-cleavage amounted to 0.315.

As for U38A G65A, the self-cleavage was 0.733.

In the case of U38C C63A, the self-cleavage came to 0.71.

With U38C C63G, the self-cleavage was determined as 0.693.

As for U38C A51U, the self-cleavage came to 0.935.

Take G37C G47C: the self-cleavage was 0.18.

With U38A C54G, the self-cleavage came to 0.8.

As for U38A C54A, the self-cleavage was 0.797.

U38A U44C: the self-cleavage was 0.802.

Regarding U36A A40U, the self-cleavage came out at 0.191.

For G37U G58A, the self-cleavage stood at 0.17.

U36A A42G: the self-cleavage came out at 0.355.

U36A G41A: the self-cleavage worked out at 0.146.

Regarding C35U U55A, the self-cleavage worked out at 0.82.

Regarding U38C U61G, the self-cleavage stood at 0.759.

U38C U61A: the self-cleavage amounted to 0.759.

As to U38C U46G, the self-cleavage stood at 0.921.

Turning to U38A A40C, the self-cleavage stood at 0.703.

U38A A40G: the self-cleavage came to 0.808.

Consider U36G U64A, for which the self-cleavage was determined as 0.254.

With U38G G50A, the self-cleavage was found to be 0.204.

As to U38G G50C, the self-cleavage worked out at 0.161.

On to U36G G47U, for which the self-cleavage turned out to be 0.148.

Take U36C G37A: the self-cleavage came to 0.335.

As to G37A U55G, the self-cleavage stood at 0.234.

For the variant G37U A51U, the self-cleavage was found to be 0.252.

As for G37U A51C, the self-cleavage was found to be 0.234.

Consider G37U A51G, for which the self-cleavage is 0.266.

In the case of U36C A51G, the self-cleavage was 0.914.

For the variant U36A U43C, the self-cleavage is 0.186.

With U36C C63U, the self-cleavage turned out to be 0.856.

On to U38C U69G, for which the self-cleavage was determined as 1.05.

Regarding G37A C45A, the self-cleavage amounted to 0.23.

Consider U36A G58A, for which the self-cleavage came out at 0.205.

On to U38A G56C, for which the self-cleavage came out at 0.466.

In the case of U38A G56U, the self-cleavage was determined as 0.875.

Turning to U36G U46A, the self-cleavage was determined as 0.349.

In the case of U36G U46G, the self-cleavage came to 0.181.

As to U38G A40C, the self-cleavage came to 0.17.

Regarding U38G A40G, the self-cleavage turned out to be 0.257.

As to U38G A40U, the self-cleavage stood at 0.179.

With G37A C66A, the self-cleavage was 0.227.

As for G37A C66G, the self-cleavage was 0.265.

Regarding G37U A52C, the self-cleavage was 0.281.

Regarding U38A C45U, the self-cleavage worked out at 0.918.

Turning to U38A C45A, the self-cleavage was determined as 0.875.

U36G A51C: the self-cleavage was 0.25.

On to U36G A51G, for which the self-cleavage came to 0.179.

Regarding U36G A51U, the self-cleavage is 0.117.

For the variant C39A C57A, the self-cleavage was determined as 0.337.

With U38A G68A, the self-cleavage turned out to be 0.922.

U38G A51G: the self-cleavage was found to be 0.258.

With U38G A51U, the self-cleavage came to 0.295.

Consider U36G A40U, for which the self-cleavage is 0.259.

For U36A U69G, the self-cleavage came to 0.347.

With U36C G68U, the self-cleavage came to 1.01.

For G37A A51C, the self-cleavage is 0.334.

Regarding G37A A51G, the self-cleavage was determined as 0.332.

As to U38A G50A, the self-cleavage amounted to 0.952.

Regarding G37A G50A, the self-cleavage was found to be 0.304.

For G37U A59C, the self-cleavage was found to be 0.218.

With G37U A59G, the self-cleavage amounted to 0.412.

With U36C U43G, the self-cleavage was 0.662.

Take G37C U38G: the self-cleavage was determined as 0.25.

As for U36A C66G, the self-cleavage came to 0.257.

In the case of U38C C54A, the self-cleavage is 0.61.

Take G37A C63G: the self-cleavage was 0.258.

With G37C U43G, the self-cleavage came to 0.202.

G37U U62C: the self-cleavage is 0.299.

For the variant G37U G68U, the self-cleavage was found to be 0.375.

Consider U36A U64C, for which the self-cleavage came out at 0.298.

As for U36A G37U, the self-cleavage worked out at 0.259.

Take U36A G37C: the self-cleavage was 0.198.

In the case of U36A G37A, the self-cleavage was found to be 0.213.

Take U36G A42U: the self-cleavage was 0.256.

On to U36G A42C, for which the self-cleavage came out at 0.221.

For G37U U69G, the self-cleavage was 0.354.

Consider G37U U69A, for which the self-cleavage was determined as 0.358.

With G37U A40U, the self-cleavage was 0.257.

For the variant U38C U55G, the self-cleavage was determined as 0.242.

As to G37A U69A, the self-cleavage was 0.422.

As to G37A U69G, the self-cleavage came to 0.538.

For U36G C57U, the self-cleavage came to 0.184.

For U36G C57A, the self-cleavage was determined as 0.236.

With G37A U49C, the self-cleavage is 0.303.

Consider G37A U49A, for which the self-cleavage is 0.285.

As to U36A A51G, the self-cleavage came out at 0.249.

For the variant C35U U53C, the self-cleavage was 0.897.

Regarding C35U U53G, the self-cleavage is 0.636.

Turning to U38C C66U, the self-cleavage came to 0.947.

Turning to G37U C45A, the self-cleavage is 0.295.

Take U36A A59U: the self-cleavage was 0.146.

On to U36G U69C, for which the self-cleavage is 0.493.

Turning to U36G U69G, the self-cleavage was determined as 0.45.

As to G37A U62G, the self-cleavage came to 0.318.

Take U38G U46G: the self-cleavage worked out at 0.308.

On to G37U C54U, for which the self-cleavage came to 0.332.

Take G37C U69C: the self-cleavage was determined as 0.428.

With G37C U69A, the self-cleavage was found to be 0.336.

Take G37C U46A: the self-cleavage was determined as 0.236.

As to G37C U46G, the self-cleavage is 0.25.

As for G37A U53G, the self-cleavage came out at 0.222.

For G37A U53A, the self-cleavage is 0.303.

Consider U36G C63A, for which the self-cleavage stood at 0.147.

With U38G G48A, the self-cleavage came out at 0.21.

For the variant U36G G65U, the self-cleavage turned out to be 0.0921.

Turning to U38G G68C, the self-cleavage came to 0.175.

Regarding U38G G68U, the self-cleavage stood at 0.273.

Consider U36A C45U, for which the self-cleavage is 0.325.

On to U36A U49C, for which the self-cleavage turned out to be 0.22.

With U36A A52C, the self-cleavage stood at 0.24.

Regarding U36G U61G, the self-cleavage was 0.179.

Take U36G U61C: the self-cleavage amounted to 0.139.

G37A C54G: the self-cleavage stood at 0.221.

U38C A59G: the self-cleavage came out at 1.01.

Consider U38C A59C, for which the self-cleavage is 0.306.

On to G37C C45G, for which the self-cleavage was found to be 0.346.

Take C39A A42U: the self-cleavage came to 0.551.

U36A G48A: the self-cleavage amounted to 0.269.

Take C39A G41C: the self-cleavage was found to be 0.396.

Regarding C39A G41A, the self-cleavage was 0.383.

In the case of U38C A52G, the self-cleavage stood at 0.909.

Turning to U38C A52U, the self-cleavage came to 0.895.

On to G37U G48C, for which the self-cleavage came to 0.326.

In the case of G37A G58U, the self-cleavage stood at 0.247.

Take G37A G58A: the self-cleavage stood at 0.289.

Consider G37A G48C, for which the self-cleavage was found to be 0.265.

For G37A G48A, the self-cleavage is 0.357.

In the case of U38A A42G, the self-cleavage was determined as 0.755.

In the case of U38A A42C, the self-cleavage stood at 0.892.

With G37U C66U, the self-cleavage came to 0.245.

U38C G48U: the self-cleavage came to 1.

As for U38C G48C, the self-cleavage amounted to 0.986.

As for C35U U67A, the self-cleavage is 0.95.

On to U36C A52G, for which the self-cleavage was 0.855.

Consider G37C A59U, for which the self-cleavage worked out at 0.242.

G37C A60G: the self-cleavage came out at 0.237.

Consider U38A U67C, for which the self-cleavage is 0.943.

Turning to U36A G68U, the self-cleavage was 0.248.

As to U38C G47C, the self-cleavage turned out to be 0.938.

For the variant U36A C54A, the self-cleavage came to 0.2.

As for U36A C54G, the self-cleavage amounted to 0.215.

Turning to G37C U67G, the self-cleavage was 0.188.

In the case of G37C U67A, the self-cleavage was 0.274.

For the variant C35U G68A, the self-cleavage is 0.992.

For G37C G48C, the self-cleavage is 0.226.

Turning to U38A U53A, the self-cleavage turned out to be 0.864.

Consider U38A U53G, for which the self-cleavage worked out at 0.706.

U36A U46C: the self-cleavage stood at 0.186.

As for U36A, the self-cleavage was 0.25.

As to U36G, the self-cleavage came out at 0.239.

U36C: the self-cleavage amounted to 0.939.

For the variant C35U U69A, the self-cleavage is 0.967.

In the case of U38G C57G, the self-cleavage is 0.121.

U36C U38C: the self-cleavage came to 0.631.

In the case of U36C U38A, the self-cleavage came to 0.376.

As for U36C C39A, the self-cleavage stood at 0.474.

As for U36C C39U, the self-cleavage worked out at 0.732.
